The results in this text go back to patent US20030064071A1.

Assay [1] has as its target DC-SIGN (human) (UniProt Q9NNX6). Description: cell-based or functional assay.
The target is the same in assay [2]. Description: flow cytometry, immature DC day 7 (endogenous DC-SIGN). (A flow cytometer gives signals particle by particle.)
Assay [3] shares this target. Kind of assay: flow cytometry, mature DC day 9, LPS-matured (endogenous DC-SIGN).
The target is the same in assay [4]. Description: flow cytometry, mature DC day 9, TNFα-matured (endogenous DC-SIGN).
The target is the same in assay [5]. Description: flow cytometry, mature DC day 9, MCM/PGE2-matured (endogenous DC-SIGN).

Sequence of DC-SIGN (human) (Q9NNX6 whole entry): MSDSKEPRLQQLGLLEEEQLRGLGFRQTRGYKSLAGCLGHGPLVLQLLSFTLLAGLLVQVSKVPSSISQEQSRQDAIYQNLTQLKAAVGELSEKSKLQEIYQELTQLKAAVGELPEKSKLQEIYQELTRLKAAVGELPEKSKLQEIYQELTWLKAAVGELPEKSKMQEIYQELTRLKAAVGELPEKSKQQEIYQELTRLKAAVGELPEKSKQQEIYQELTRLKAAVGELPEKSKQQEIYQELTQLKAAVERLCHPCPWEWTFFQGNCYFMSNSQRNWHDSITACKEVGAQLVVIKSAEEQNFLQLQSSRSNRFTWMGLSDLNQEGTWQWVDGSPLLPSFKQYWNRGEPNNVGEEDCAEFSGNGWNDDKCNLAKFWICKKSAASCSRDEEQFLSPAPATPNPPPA

“HxB2 envelope (from UniProt P04578 33-856)” showed a luciferase activity (unactivated T cells, THP-SIGN cells relative to THP cells) in assay [1] of 20 fold.

With AZN-D1 (antibody), the mean fluorescence of staining (mean fluorescence) in assay [2] is 980; in assay [3], 489; in assay [4], 420; in assay [5], 445.
